The text below walks through data of patent US20230407373A1 (priority 2020, published 2023).

The assay concerns HCoV-OC43 gRNA and sgRNA. It counts as binding.

B1: G3BP2: host protein of the core SARS-CoV-2 RNA interactome (protein, UniProt Q9UN86 2-482, looked up)
Ras GTPase-activating …: VMEKPSPLLVGREFVRQYYTLLNKAPEYLHRFYGRNSSYVHGGVDASGKPQEAVYGQNDIHHKVLSLNFSECHTKIRHVDAHATLSDGVVVQVMGLLSNSGQPERKFMQTFVLAPEGSVPNKFYVHNDMFRYEDEVFGDSEPELDEESEDEVEEEQEERQPSPEPVQENANSGYYEAHPVTNGIEEPLEESSHEPEPEPESETKTEELKPQVEEKNLEELEEKSTTPPPAEPVSLPQEPPKAFSWASVTSKNLPPSGTVSSSGIPPHVKAPVSQPRVEAKPEVQSQPPRVREQRPRERPGFPPRGPRPGRGDMEQNDSDNRRIIRYPDSHQLFVGNLPHDIDENELKEFFMSFGNVVELRINTKGVGGKLPNFGFVVFDDSEPVQRILIAKPIMFRGEVRLNVEEKKTRAARERETRGGGDDRRDIRRNDRGPGGPRGIVGGGMMRDRDGRGPPPRGGMAQKLGSGRGTGQMEGRFTGQRR
As to B1, the “background (unweighted spectral count, no-probe control)” value was determined as 1; the “target (unweighted spectral count)” value came to 4; the “target (unweighted spectral count, OC43 Probe II capture)” value is recorded as 4; the “target (unweighted spectral count, OC43 Probe II)” value turned out to be 9.
